# Measurements reported in article PMC10108556 (Antibody Therapeutics, 2023).
# B1: A5–10 Fab (Fab, V domains shown)
# VH: EVQLLESGGGLVQPGGSLRLSCAASGFTFSSYAMSWVRQAPGKGLEWVSAIVGSGGSTYYADSVKGRFIISRDNSKNTLYLQMNSLRAEDTAVYYCAKSLIYGHYDILTGAYYFDYWGQGTLVTVSS
# VL: AQMTQSPSSVSASVGDRVTIPCRASQGIGNWLAWYQQKPGKAPKLLIYAASSLQSGVPSRFSGSGSGTDFTLTISSLQPEDFATYYCQQANSFPPFGQGTRLEIK
# B2: nAb A5–10 (antibody, V domains shown)
# VH: EVQLLESGGGLVQPGGSLRLSCAASGFTFSSYAMSWVRQAPGKGLEWVSAIVGSGGSTYYADSVKGRFIISRDNSKNTLYLQMNSLRAEDTAVYYCAKSLIYGHYDILTGAYYFDYWGQGTLVTVSS
# VL: AQMTQSPSSVSASVGDRVTIPCRASQGIGNWLAWYQQKPGKAPKLLIYAASSLQSGVPSRFSGSGSGTDFTLTISSLQPEDFATYYCQQANSFPPFGQGTRLEIK
# B3: A5-10 Fab (Fab, V domains shown)
# VH: EVQLLESGGGLVQPGGSLRLSCAASGFTFSSYAMSWVRQAPGKGLEWVSAIVGSGGSTYYADSVKGRFIISRDNSKNTLYLQMNSLRAEDTAVYYCAKSLIYGHYDILTGAYYFDYWGQGTLVTVSS
# VL: AQMTQSPSSVSASVGDRVTIPCRASQGIGNWLAWYQQKPGKAPKLLIYAASSLQSGVPSRFSGSGSGTDFTLTISSLQPEDFATYYCQQANSFPPFGQGTRLEIK
# B4: A8–1 Fab (Fab, V domains shown)
# VH: EVQLVESGGGLIQPGGSLRLSCAASGLTVSSNYMTWVRQAPGKGLEWVSVIYSGGSTFYAESVKGRFTISRDNSKNTLYLQMNSLRAEDTAVYYCARDLVVYGMDVWGQGTTVIVSS
# VL: IQLTQSPSFLSASVGDRVTITCRASQGISSDLAWYQQKPGKAPKLLIYAASTLQSGVPSRFSGSGSGTEFTLTISSLQPEDFATYYCQQLNSHPLAFGPGTKVDIK
# B5: nAb A8–1 (antibody, V domains shown)
# VH: EVQLVESGGGLIQPGGSLRLSCAASGLTVSSNYMTWVRQAPGKGLEWVSVIYSGGSTFYAESVKGRFTISRDNSKNTLYLQMNSLRAEDTAVYYCARDLVVYGMDVWGQGTTVIVSS
# VL: IQLTQSPSFLSASVGDRVTITCRASQGISSDLAWYQQKPGKAPKLLIYAASTLQSGVPSRFSGSGSGTEFTLTISSLQPEDFATYYCQQLNSHPLAFGPGTKVDIK
# B6: A8-1 Fab (Fab, V domains shown)
# VH: EVQLVESGGGLIQPGGSLRLSCAASGLTVSSNYMTWVRQAPGKGLEWVSVIYSGGSTFYAESVKGRFTISRDNSKNTLYLQMNSLRAEDTAVYYCARDLVVYGMDVWGQGTTVIVSS
# VL: IQLTQSPSFLSASVGDRVTITCRASQGISSDLAWYQQKPGKAPKLLIYAASTLQSGVPSRFSGSGSGTEFTLTISSLQPEDFATYYCQQLNSHPLAFGPGTKVDIK
# B7: nAb A34–2 (antibody, V domains shown)
# VH: EVQLVESGGGLVQPGRSLRLSCAASGFTFDESAMHWVRQAPGEGLEWVSGISWNSGRIAYADSVRGRFTISRDNAKNSLYLQMNSLRAEDTALYFCALTTSGWFSFDYWGQGTLVTVSS
# VL: SYVLTQPPSVSVAPGKTARITCGGNNIGSKSVHWYQQKPGQAPVPVIYYDSDRPSGIPERFSGSNSGNTATLTISRVEVGDEADYYCQVWDSSSDRAVFGGGTTLTVL
# B8: A34-2 Fab (Fab, V domains shown)
# VH: EVQLVESGGGLVQPGRSLRLSCAASGFTFDESAMHWVRQAPGEGLEWVSGISWNSGRIAYADSVRGRFTISRDNAKNSLYLQMNSLRAEDTALYFCALTTSGWFSFDYWGQGTLVTVSS
# VL: SYVLTQPPSVSVAPGKTARITCGGNNIGSKSVHWYQQKPGQAPVPVIYYDSDRPSGIPERFSGSNSGNTATLTISRVEVGDEADYYCQVWDSSSDRAVFGGGTTLTVL
# B9: A34–2 Fab (Fab, V domains shown)
# VH: EVQLVESGGGLVQPGRSLRLSCAASGFTFDESAMHWVRQAPGEGLEWVSGISWNSGRIAYADSVRGRFTISRDNAKNSLYLQMNSLRAEDTALYFCALTTSGWFSFDYWGQGTLVTVSS
# VL: SYVLTQPPSVSVAPGKTARITCGGNNIGSKSVHWYQQKPGQAPVPVIYYDSDRPSGIPERFSGSNSGNTATLTISRVEVGDEADYYCQVWDSSSDRAVFGGGTTLTVL
# Experiments:
# [1] = target: T1, SARS-CoV-2 RBD domain (residues 319–541) with C-terminal twin-strep-tag II (SARS-CoV-2 Wuhan-Hu-1 (MN908947), UniProt P0DTC2); experiment: cryo-EM structure
# RBD-his = RBD-his (SARS-CoV-2, UniProt P0DTC2); experiment: AlphaScreen or HTRF
# [2] = target: T2, SARS-CoV-2 RBD domain (residues 319-541) (SARS-CoV-2 Wuhan-Hu-1 (MN908947), UniProt P0DTC2); experiment: cryo-EM structure
# [3] = target: T1, SARS-CoV-2 RBD domain (residues …); experiment: crystal structure
# [4] = target: T2, SARS-CoV-2 RBD domain (residues 319-541); experiment: crystal structure
binder,measurement,setting,value
B1,binding result,[1],binds
B2,binding result,RBD-his,binds
B3,binding result,[2],binds
B4,binding result,[3],binds
B5,binding result,RBD-his,binds
B6,binding result,[4],binds
B7,binding result,RBD-his,binds
B8,binding result,[2],binds
B9,binding result,[1],binds
